Experiment [1] concerns the target T1, His-tagged CEACAM1 (human, UniProt P13688 35-428).
T1 construct: 45 kDa SPR analyte; also called CEACAM1-HIS; CEACAM1 analyte
T1 sequence: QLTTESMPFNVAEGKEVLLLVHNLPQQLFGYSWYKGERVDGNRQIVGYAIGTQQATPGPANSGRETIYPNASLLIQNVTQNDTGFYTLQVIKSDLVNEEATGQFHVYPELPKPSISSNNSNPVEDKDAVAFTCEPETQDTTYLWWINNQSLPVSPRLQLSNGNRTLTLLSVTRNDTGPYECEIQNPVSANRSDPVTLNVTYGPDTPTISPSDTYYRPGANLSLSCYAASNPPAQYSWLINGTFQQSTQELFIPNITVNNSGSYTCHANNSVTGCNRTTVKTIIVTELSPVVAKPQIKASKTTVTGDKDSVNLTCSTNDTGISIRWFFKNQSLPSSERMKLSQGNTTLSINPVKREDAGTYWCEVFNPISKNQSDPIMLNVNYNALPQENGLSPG
Kind of experiment: SPR multi-cycle, purified IgG captured. The protocol:
Variants CP08H03/Vκ8 S29A and CP08H03/CP08F05 were further analyzed using multi-cycle kinetics analysis, using a Biacore T200 instrument running Biacore T200 Evaluation Software V3.0.1. The purified antibodies were diluted to a concentration of 1 μg/ml in HBS-P+. At the start of each cycle, each antibody was captured on the Protein A surface to give an RL of ˜100 RU. Following capture, the surface was allowed to stabilize. Kinetic data was obtained using a flow rate of 80 μl/min to minimize any potential mass transfer effects. Multiple repeats of the blank (no CEACAM1) and a repeat of a single concentration of the analyte were programmed into the kinetic run in order to check the stability of both the surface and analyte over the kinetic cycles. For kinetic analysis, a two-fold dilution range was selected from 100 to 1.56 nM CEACAM1. The association phase of CEACAM1 was monitored for 150 seconds and the dissociation phase was measured for 150 seconds. Regeneration of the Protein A surface was conducted using two injections of 10 mM glycine-HCL pH 1.5 at the end of each cycle.
The signal from the reference channel Fc1 was subtracted from that of Fc2, Fc3 and Fc4 to correct for differences in non-specific binding to a reference surface, and a global Rmax parameter was used in the 1-to-1 binding model. The relative Kp compared to Parent (VH1/Vκ8 S29A) was calculated by dividing the Kp of the affinity matured composite human antibody variants by that of the Parent on the same chip. The kinetic parameters measured for the interaction of CEACAM1 with affinity matured CEACAM1 antibody variants CP08H03/Vκ8 S29A and CP08H03/CP08F05 are shown in Table 23.

Experiment [2] concerns the target T2, CEACAM3 on transfected HeLa cells (human, UniProt P40198 35-252).
T2 construct: whole, on cells; also called HeLa-CEACAM3; HeLa C3
T2 sequence (looked up): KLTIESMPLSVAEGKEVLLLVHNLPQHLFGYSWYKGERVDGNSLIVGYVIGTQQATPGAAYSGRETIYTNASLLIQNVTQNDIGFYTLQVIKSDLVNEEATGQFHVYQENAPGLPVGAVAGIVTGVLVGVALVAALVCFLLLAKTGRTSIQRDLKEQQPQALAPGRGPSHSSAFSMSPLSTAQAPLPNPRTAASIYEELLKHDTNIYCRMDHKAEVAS
In words: flow cytometry, HeLa-CEACAM3 transfectants, % staining, stacked bars. From the text: (§1) FIG. 11 illustrates the binding selectivity of different affinity-matured CEACAM1 antibodies. […] HELA cells were transfected with vector alone (HeLa-Neo) or vectors expressing CEACAM1, CEACAM3, CEACAM5, or CEACAM6, respectively, and stained with the indicated antibodies. […] MOPC=mouse IgG1 control antibody. Mouse antibodies as positive control for transfected CEACAM isoforms: Col-1=CEACAM3 and CEACAM5 antibody. 9A6=CEACAM6 antibody. T84.1=CEACAM cross-reactive antibody and T84.66=CEACAM5 antibody. Only 2nd FITC=No primary antibody, only secondary FITC conjugated antibody. […] Data for affinity-matured antibodies 9B3_8H3/Vκ8 S29A, 8H3_9B3/CP08_E05, and 8H3_9C2/CPO08_F05, as well as data for CEACAM8 antibody 80H3 were omitted from the FIG. due to an unusually high background signal.
For orientation: A flow cytometer gives signals particle by particle.

For experiment [3], the target named is T3, CEACAM5 on transfected HeLa cells (human, UniProt P06731 35-685).
T3 construct: whole, on cells; also called HeLa-CEACAM5; HeLa C5
T3 sequence (looked up): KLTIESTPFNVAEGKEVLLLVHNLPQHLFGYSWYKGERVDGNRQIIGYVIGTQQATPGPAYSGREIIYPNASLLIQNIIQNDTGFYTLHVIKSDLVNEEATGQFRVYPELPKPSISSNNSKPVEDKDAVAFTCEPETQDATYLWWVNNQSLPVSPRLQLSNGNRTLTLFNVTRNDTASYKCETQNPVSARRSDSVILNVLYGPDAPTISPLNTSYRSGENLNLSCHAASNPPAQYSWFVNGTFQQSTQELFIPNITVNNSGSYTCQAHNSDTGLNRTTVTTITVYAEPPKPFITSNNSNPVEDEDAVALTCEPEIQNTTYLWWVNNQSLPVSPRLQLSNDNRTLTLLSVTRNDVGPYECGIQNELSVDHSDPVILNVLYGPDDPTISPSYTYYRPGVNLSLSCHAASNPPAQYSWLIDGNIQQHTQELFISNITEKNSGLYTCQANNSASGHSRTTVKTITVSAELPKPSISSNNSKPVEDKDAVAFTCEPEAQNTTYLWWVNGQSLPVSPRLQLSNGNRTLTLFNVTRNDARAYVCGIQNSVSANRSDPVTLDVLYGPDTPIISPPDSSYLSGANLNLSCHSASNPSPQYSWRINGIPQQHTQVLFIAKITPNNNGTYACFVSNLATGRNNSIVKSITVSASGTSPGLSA
Kind of experiment: flow cytometry, HeLa-CEACAM5 transfectants, % staining, stacked bars.
From the text: as §1

The target of experiment [4] is T4, CEACAM6 on transfected HeLa cells (human, UniProt P40199 35-320).
T4 construct: whole, on cells; also called HeLa-CEACAM6; HeLa C6
T4 sequence (looked up): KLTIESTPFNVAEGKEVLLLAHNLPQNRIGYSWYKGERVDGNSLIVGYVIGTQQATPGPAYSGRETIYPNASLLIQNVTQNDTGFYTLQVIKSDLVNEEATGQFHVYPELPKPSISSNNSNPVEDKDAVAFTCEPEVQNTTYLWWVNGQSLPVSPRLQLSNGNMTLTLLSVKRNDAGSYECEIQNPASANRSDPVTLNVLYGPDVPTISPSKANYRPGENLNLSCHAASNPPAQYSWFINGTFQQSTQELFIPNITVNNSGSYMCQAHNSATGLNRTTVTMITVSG
Kind of experiment: flow cytometry, HeLa-CEACAM6 transfectants, % staining, stacked bars.
From the text: as §1

Values joined by “and” are separate entries in the source; they are usually repeats but may differ in a detail not shown here. Equal values may be shown once.

The term Kd denotes the free concentration of one partner at which half of the binding sites on the other are occupied at equilibrium, for simple one-to-one binding. Low readings indicate tighter binding, high ones weaker binding. The koff is a measure of how fast the partners let go of each other. For orientation: kon means the second-order rate constant of association. Low values mean slow association, high ones fast association.

B1: chimeric antibody VH0/Vκ0 (antibody, IgG4, V domains shown)
VH: EVQLVESGGDLVKPGGSLKLACAASGFIFSSHGMSWVRQTPDKRLEWVATISSGGTYTYYPDSVKGRFTISRDNDKNTLYLQMNSLKSEDTAMYYCARHDFDYDAAWFAYWGQGTLVTVSS
VL: QIVLTQSPALMSASPGVKVTMTCSANSSVSYMYWYRQKPRSSPKPWIYLTSNLASGVPARFSGSGSGTSYSLTISSMEAEDAATYYCQQWSSNPPTFGSGTKLEIK
notes: IgG4 (S241P), kappa; also called VH0/Vκ0 (control); Chimeric VH0/Vκ0
On to B1, for which, in experiment [1], the Kd is 95 nM and 100 nM; the koff is 0.045 s⁻¹ and 0.035 s⁻¹; the kon is 470000 M⁻¹ s⁻¹ and 350000 M⁻¹ s⁻¹.

B2: VH1/Vκ8 S29A (antibody, IgG4, V domains shown)
VH: EVQLLESGGGLVQPGGSLRLSCAASGFIFSSHGMSWVRQAPGKGLEWVATISSGGTYTYYPDSVKGRFTISRDNSKNTLYLQMNSLKAEDTAMYYCARHDFDYDAAWFAYWGQGTLVTVSS
VL: EIVLTQSPATLSLSPGERATLSCRANSAVSYMYWYQQKPGQAPRPWIYLTSNRATGVPARFSGSGSGTDYTLTISSLEPEDFAVYYCQQWSSNPPTFGQGTKLEIK
notes: IgG4 (S241P), kappa; also called Parent; Parent (VH1/Vκ8 S29A)
For B2, in experiment [1], the Kd was 420 nM and 490 nM; the koff is 0.045 s⁻¹ and 0.06 s⁻¹; the kon was 110000 M⁻¹ s⁻¹ and 120000 M⁻¹ s⁻¹; the “relative KD to parent” value amounted to 1. Further, in experiment [2], the binding result was “no binding”. For the same molecule, the binding result in experiment [3] is on record as “no binding”. Besides, in experiment [4], the binding result is “no binding”.

B3: CP08H03/Vκ8 S29A (antibody, IgG4, V domains shown)
VH: EVQLLESGGGLVQPGGSLRLSCAASGFIFSSHGMSWVRQAPGKGLEWVATISSGGTYTYYPDSVKGRFTISRDNSKNTLYLQMNSLKAEDTAMYYCARHDFDYFPYWFAHWGQGTLVTVSS
VL: EIVLTQSPATLSLSPGERATLSCRANSAVSYMYWYQQKPGQAPRPWIYLTSNRATGVPARFSGSGSGTDYTLTISSLEPEDFAVYYCQQWSSNPPTFGQGTKLEIK
notes: IgG4 (S241P), kappa; also called CP08_H03/Parent VL; CP08_H03/Parental
With B3, in experiment [1], the Kd amounted to 99 nM, the koff was found to be 0.009 s⁻¹, the kon was found to be 91000 M⁻¹ s⁻¹ and the “relative KD to parent” value was 4.3.

B4: CP08H03/CP08F05 (antibody, V domains shown)
VH: EVQLLESGGGLVQPGGSLRLSCAASGFIFSSHGMSWVRQAPGKGLEWVATISSGGTYTYYPDSVKGRFTISRDNSKNTLYLQMNSLKAEDTAMYYCARHDFDYFPYWFAHWGQGTLVTVSS
VL: EIVLTQSPATLSLSPGERATLSCRANSAVSYMYWYQQKPGQAPRPWIYLTSNRATGVPARFSGSGSGTDYTLTISSLEPEDFAVYYCQQWTSNPPTFGQGTKLEIK
notes: IgG4 (S241P), kappa
Take B4: in experiment [1], the dissociation constant (Kd) is 58 nM, the koff was 0.0078 s⁻¹, the kon was 130000 M⁻¹ s⁻¹ and the “relative KD to parent” value was found to be 8.4. Further, in experiment [2], the binding result was “no binding”. The binding result in experiment [3] is recorded as “no binding”. The binding result in experiment [4] is on record as “no binding”.

For the origin of these results see US20250074980A1 (BRIGHAM AND WOMEN S HOSPITAL, published 2025).
